{
  "source": "patent US20060280745A1",
  "about": "(MEDICAL RESEARCH COUNCIL, published 2006)",
  "molecular_target": "T1, murine PrP^c (mouse, UniProt P04925 23-230)",
  "T1 construct": "also called mouse PrP^c; normal cellular prion protein",
  "T1 sequence (P04925 23-230 limits assumed)": "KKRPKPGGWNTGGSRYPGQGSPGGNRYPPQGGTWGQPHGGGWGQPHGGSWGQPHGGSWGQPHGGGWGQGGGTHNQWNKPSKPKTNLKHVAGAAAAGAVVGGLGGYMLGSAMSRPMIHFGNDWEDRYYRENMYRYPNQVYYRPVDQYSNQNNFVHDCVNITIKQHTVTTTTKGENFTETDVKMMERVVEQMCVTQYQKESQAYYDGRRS",
  "assay": "immunoblot of whole spleen homogenate (FIG. 5)",
  "data": [
    {"binder": "ICSM 18 (antibody, V domains shown, also called biotinylated ICSM 18) VH: EVQLQQSGPELVKPGSSVKISCKASRNTFTDYNLDWVKQSHGKTLEWIGNVYPNNGVTGYNQKFRGKATLTVDKSSSTAYMELHSLTSEDSAVYYCALYYYDVSYWGQGTLVTVSA VL: QIVLTQSPAIMSASPGEKVTMTCSASSSVSYMHWYQQKSGTSPKRWIYDTSKLASGVPARFSGSGSGTSYSLTISSMEAEDAATYFCHQWRSNPYTFGGGTKLEIKR", "values": [
      {"measurement": "binding result", "value": "binds"}
    ]}
  ]
}
